For 1 molecule, Kd results are on record in article PMC10443397.

The test concerns the target triple-phosphorylated Schizosaccharomyces pombe Dss1, fluorescein-labelled on the C-terminal cysteine (S. pombe) (UniProt O14140). The test is described as follows: MST.

The Kd is the equilibrium constant for the complex coming apart.

B1: FHA domain of Schizosaccharomyces pombe Dma1 (residues 25-160) (domain or fragment)
chain: DKISIRLTNFVGPNAHSFSFDPLVRYWNRKQNNLPIYIGRYTERYNGGDVSAIVFRSKVVSRRHAQIFYENNTWYIQDMGSSSGTFLNHVRLSPPSKTSKPYPISNNDILQLGADYRGGHEVNYRCVRARVELNNS
With B1, the dissociation constant Kd amounted to 1300 nM.
